# Test results: patent US20110165145A1, “IGF-II/IGF-IIE BINDING PROTEINS” (priority 2008, published 2011)
# B1: M0068-E03: human anti-IGF-II/IGF-IIE Fab from phage display library (protein)
# light: QDIQMTQSPSSLSASVGDRVTITCRASQSINTYLNWYQQKPGKAPKVLIHAASTLESGVPSRFSGSGSATEFTLTISSLQPEDFATFYCQQSYSVPFTFGPGTRLSSKRTVAAPSVFIFPPSDEQLKSGTASVVCLLNNFYPREAKVQWKVDNALQSGNSQESVTEQDSKDSTYSLSSTLTLSKADYEKHKVYACEVTHQGLSSPVTKSFNRGEC
# heavy: EVQLLESGGGLVQPGGSLRLSCAASGFTFSEYVMAWVRQAPGKGLEWVSSIVSSGGYTKYADSVKGRFTISRDNSKNTLYLQMNSLRAEDTAVYYCAKDMTYSGDAFDVWGQGTMVTVSSASTKGPSVFPLAPSSKSTSGGTAALGCLVKDYFPEPVTVSWNSGALTSGVHTFPAVLQSSGLYSLSSVVTVPSSSLGTQTYICNVNHKPSNTKVDKKVEPKSCAAAHHHHHHGAAEQKLISEEDLNGAAEASSASNA
# B2: X0005-H01: germlined IgG counterpart of M0064-E04 in Table 6 (antibody, V domains shown)
# VH: EVQLLESGGGLVQPGGSLRLSCAASGFTFSVYDMNWVRQAPGKGLEWVSSISSSGGGTLYADSVKGRFTISRDNSKNTLYLQMNSLRAEDTAVYYCARDSDTSSYYWYYDLWGRGTLVTVSS
# VL: DIQMTQSPSSLSASVGDRVTITCQASHDISNYLNWYQQKPGKAPKLLIYAASRLQSGVPSRFSGSGSGTDFTLTISSLQPEDFATYYCQQSYSFPRTFGQGTRLEIK
# Tests used:
# [1] = target: T1, IGF-IIE (Homo sapiens, UniProt P01344); experiment: IGF-IIE stimulated Ba/F3 cell proliferation, sFabs (MTS assay); type: cell-based; details: 72 h
# T1 construct: the construct comprising amino acids 1-104, which encompass the E domain
# Description: (§1) Ba/F3 cells were cultured in complete medium (90% RPMI 1640+10% FBS+10 ng/ml IL-3+2 mM L-Alanyl-Glutamine+1×Pen/Strep). Cells at passage 6 to 15 were used for the high throughput cell proliferation assay. IGF-II (67aa), IGF-IIE (104aa) were at 10 μg/ml in PBS, kept at −70° C. IL-4 was purchased from R&D system, Cat#: 404-ML, and anti-IGF-II antibody was purchased from R&D system, Cat#: MAB292. 34 sFabs from batch 1 and batch 2 in a median scale purification, all in PBS, were screened.
# (§2) IGF-II was prepared at concentration of 400 ng/ml; IGF-IIE at 800 ng/ml; sFab at 200 μg/ml in PBS. 25 μl of IGF-II or IGF-IIE was preincubated with 25 μl of sFab in 96-well plate, triplicate for each sFab, 30 min at room temperature in a total volume of 50 μl/well. […]
# (§3) The MTS assay was performed as follows: • Add 20 μl of CellTiter 96 Aqueous One Solution Reagent to each well • Incubate at 37° C., 5% CO2 for additional 4 h. • Read plate for absorbance at a microplate spectrophotometer at wavelength 490 nm. […]
# (§4) MTS Assay: • Add 20 μl of CellTiter 96 Aqueous One Solution Reagent to each well • Incubate at 37° C., 5% CO2 for additional 4 h. • Read plate for absorbance at a microplate spectrophotometer at wavelength 490 nm.
# [2] = target: T2, IGF-II (Homo sapiens, UniProt P01344); experiment: IGF-II stimulated Ba/F3 cell proliferation, sFabs (MTS assay); type: cell-based; details: 72 h
# T2 construct: IGF-II (amino acids 1-67)
# Description: as §1, §2, §3, §4
# [3] = target: T1, IGF-IIE; experiment: Affinity measurements of IgGs by SPR (BIACORE), IGF-IIE; type: binding; details: IgG
# T1 sequence (P01344 25-128): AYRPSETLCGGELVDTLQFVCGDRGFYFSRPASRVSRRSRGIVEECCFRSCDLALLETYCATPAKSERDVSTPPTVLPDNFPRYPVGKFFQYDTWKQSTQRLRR
# T2 sequence (P01344 25-91): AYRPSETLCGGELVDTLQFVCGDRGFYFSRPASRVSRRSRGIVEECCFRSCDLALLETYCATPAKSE
Molecule,"inhibitory effect on IGF-IIE stimulated Ba/F3 cell proliferation (screening) ([1]; sFab 50 μg/ml (1 μM), MTS)","inhibitory effect on IGF-IIE stimulated Ba/F3 cell proliferation (dose response, in words) ([1]; sFab 50 μg/ml down to 0)","inhibitory effect on IGF-II stimulated Ba/F3 cell proliferation (screening) ([2]; sFab 50 μg/ml (1 μM), MTS)","inhibitory effect on IGF-II stimulated Ba/F3 cell proliferation (dose response, in words) ([2]; sFab 50 μg/ml down to 0)",Kd [3] [nM]
B1,significant inhibitory effect,significant inhibitory effect,significant inhibitory effect,significant inhibitory effect,–
B2,–,–,–,–,0.26
